The data set deals with the molecule itself. Put plainly: circular dichroism; STIM1 CC3 alone in 20 mM Bis-Tris, pH 6.0, without TFE, 20 °C; ratio [CD]222/[CD]208 as coiled-coil index. (Circular dichroism is widely used to follow secondary structure.)

B1: human STIM1 coiled-coil3 (CC3) fragment (amino acids 388–430) (domain or fragment, UniProt Q13586 388-430, looked up)
chain: NTLFGTFHVAHSSSLDDVDHKILTAKQALSEVTAALRERLHRW
notes: Cloned in pGEX 4T-1 (GST tag with thrombin cleavage site); The NMR sample was 15N/13C labelled; Purification follows Rathner et al. 2018; also called STIM1 CC3; CC3 domain; source: E. coli BL21, purified (protocol of Rathner et al. 2018, slightly modified)
Turning to B1, the binding result is “binds”.

The values are drawn from PMC8481183, “Resonance assignment of coiled-coil 3 (CC3) domain of human STIM1” (Biomolecular Nmr Assignments, 2021).
